Results published in publication PMC2173242 (The Journal of Cell Biology, 2002).

Target: Human recombinant His6-tagged Hsp70 (human, UniProt P0DMV8 1-641)
Assay: pull-down

Human recombinant His6-tagged Hsp70, sequence (P0DMV8 whole entry): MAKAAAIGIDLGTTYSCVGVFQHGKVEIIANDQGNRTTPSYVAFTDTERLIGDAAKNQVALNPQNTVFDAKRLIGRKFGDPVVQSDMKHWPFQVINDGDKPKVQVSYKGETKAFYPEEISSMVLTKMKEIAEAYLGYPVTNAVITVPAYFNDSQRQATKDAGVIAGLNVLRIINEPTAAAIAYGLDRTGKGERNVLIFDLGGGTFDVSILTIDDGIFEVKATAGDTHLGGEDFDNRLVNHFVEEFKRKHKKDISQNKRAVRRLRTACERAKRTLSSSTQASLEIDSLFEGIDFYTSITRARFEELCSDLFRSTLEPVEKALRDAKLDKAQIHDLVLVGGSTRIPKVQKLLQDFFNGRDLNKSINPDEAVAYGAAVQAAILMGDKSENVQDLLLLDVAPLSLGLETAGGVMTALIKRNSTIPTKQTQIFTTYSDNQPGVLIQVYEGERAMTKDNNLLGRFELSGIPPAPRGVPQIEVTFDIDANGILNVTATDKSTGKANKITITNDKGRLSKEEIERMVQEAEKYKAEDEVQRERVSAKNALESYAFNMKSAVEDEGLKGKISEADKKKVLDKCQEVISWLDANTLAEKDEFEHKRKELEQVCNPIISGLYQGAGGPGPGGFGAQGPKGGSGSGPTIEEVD

Binder: GCEVFGLGWRSYKH [Peptide C]
- ka (saturation of the effect of peptide C on binding of Hsp70-ADP to GST-CD40): ~30 µM
